In assay [1] the target is SARS-CoV-2 Spike protein on pseudotyped virus (SARS-CoV-2 (Wuhan-Hu-1), UniProt P0DTC2 14-1273). Description: cell-based or functional assay.
Assay [2] deals with SARS-CoV-2 S protein (strain BetaCoV/Wuhan-Hu-1/2019) expressed on transfected cells (SARS-CoV-2 (Wuhan-Hu-1), UniProt P0DTC2 14-1273). Description: flow cytometry, B cell supernatant on S-transfected ExpiCHO cells.
Assay [3] concerns the target SARS-CoV-2 RBD with a Strep Tag II (SARS-CoV-2, UniProt P0DTC2 331-550). Description: BLI (Octet), RBD-Strep Tag II captured, antibody from B cell supernatant.
Assay [4] concerns the target SARS-CoV-2 RBD (residues 331-550 of spike from BetaCoV/Wuhan-Hu-1/2019, produced in house in Expi-CHO cells) (SARS-CoV-2 (Wuhan-Hu-1), UniProt P0DTC2 331-550). Description: BLI (Octet), antibody on protein A sensors, RBD in solution.
In assay [5] the target is SARS-CoV-1 RBD (Sino Biological) (SARS-CoV-1, UniProt P59594 306-527). The description is as above.
The target in assay [6] is His-tagged RBD of SARS-CoV-2 (SARS-CoV-2 (Wuhan-Hu-1), UniProt P0DTC2 331-550). The assay is described as follows: BLI (Octet), His-tagged RBD on anti-HIS sensors, antibody in solution.

B1: S315 rIgG1-LS (antibody, V domains shown)
VH: EVQLVESGGGLVQPGGSLRLSCAASGFTFSNYWMTWVRQAPGKGLEWVANIKQDGSEKYYVDSVKGRFTISRDNAKNSLYLQMNSLRAEDTAVYYCARDLWWNDQAHYYGMDVWGQGTTVTVSS
VL: SYELTQPPSVSVSPGQTARITCSGDAFPNQYAYWYQQKPGQAPVMLIYKDSERPSGIPERFFGSSSGTTVTLTIRGVQAEDEADYYCQSADSSGTVFGGGTKLTVL
As for B1, the “IC50, neutralization of SARS-CoV-2pp on DBT-ACE2 cells (further assay)” value in assay [1] was 25.1 µg/mL.

B2: SARS-CoV-2 S303-v1 (antibody, V domains shown)
VH: EVQLVESGGGLVKPGGSLRLSCAASGFTFLTYSMNWVRQTPGKRLQWVSAISGSGGATYYADSVKGRFTISRDNSKNTLYLQMNTVTADDTAIYFCARERDDIFPMGLNAFDIWGQGAMVIVSS
VL: DIQMTQSPSTLSASVGDRVTITCRASQSISNWLAWYQQKPGKAPKLLIYKASSLESGVPSRFSGSGSGTEFTLTISSLQPDDSATYYCQQYDTYSWTFGQGTKVEIK
For the molecule B2, the binding result in assay [2] and in assay [3] was “binds” each time.

B3: S303 rIgG1 (antibody, V domains shown)
VH: B2 VH
VL: B2 VL
B3: the binding result in assay [4], in assay [5] and in assay [6] was “binds” throughout.

B4: SARS-CoV-2 S308-v1 (antibody, V domains shown)
VH: QVQLVESGGGVVQPGRSLRLSCAASRFTFSSYGMHWVRQAPGKGLEWVAVIWHDGNNKHYGDSVKGRVTISRDNSKNTLYLQMTSLRAEDTAVYYCARAVTTFKGSGRARMRGMDVWGQGTTVTVSS
VL: DIQLTQSPSFLSASVGDRVTITCRASQGINTYLAWYQQKPGKAPKLLIYAASTLQSGVPSRFSGSGSGTEFTLTISSLQPEDFATYYCQHLDTYPFTFGPGTKVDIK
As to B4, the binding result in assay [2] was “binds”.

B5: SARS-CoV-2 S302 (antibody, V domains shown)
VH: QVQLVESGGGVVQPGRSLRLSCAASGFTFSSYGMHWVRQAPGKGLEWVAVISYDGSNKYYADSVKGRFTISRDNSKNTLYLQMNSLRAEDTAVYYCAKDISSGWDRVFDYWGQGTLVTVSS
VL: EILLTQSPGTLSLSPGERATLSCRTSQSVGSSYLAWYQQKPGQAPRLLIYAASSRAIGIPDRFSGSGSGTDFTLTISRLEPEDFAVYYCQQYGSSPWTFGQGTKVEIK
In the case of B5, in assay [2], the binding result is “binds”.

B6: S304 rIgG1 (antibody, V domains shown)
VH: EVQLVESGGGLVQPGGSLRLSCAASGFTFSSYDMHWVRQTTGKGLEWVSTIGTAGDTYYPDSVKGRFTISREDAKNSLYLQMNSLRAGDTAVYYCARGDSSGYYYYFDYWGQGTLLTVSS
VL: DIQMTQSPSSLSAAVGDRVTITCRASQSIGSYLNWYQQKPGKAPKLLIYAASSLQSGVPSRFSGSGSGTDFTLTISSLQPEDFAIYYCQQSYVSPTYTFGPGTKVDIK
Turning to B6, the “IC50, neutralization of SARS-CoV-2pp on DBT-ACE2 cells” value in assay [1] is approximately 17 µg/mL. Besides, in assay [5], the binding result is given as “binds”.

Source of the values: patent US20250263467A1 (VIR BIOTECHNOLOGY, published 2025).
